Data on six substances can be found in patent US20250320281A1.

What all share (experiment): cell-based or functional assay
Experiment [1] concerns the target HIV-1 92UG024 envelope glycoprotein (Env) on pseudovirus (HIV-1).
The target in experiment [2] is HIV-1 93IN905 envelope glycoprotein (Env) on pseudovirus (HIV-1).
Experiment [3] deals with HIV-1 APV-13 envelope glycoprotein (Env) on pseudovirus (HIV-1).
Experiment [4] deals with HIV-1 Env of isolate 92RW021 (clade A pseudovirus) (HIV-1).
In experiment [5] the target is HIV-1 Env of isolate 92UG005 (clade D pseudovirus) (HIV-1).
Experiment [6] deals with HIV-1 Env of isolate 98CN009 (CRF07 BC) (HIV-1 isolate 98CN009).
The target of experiment [7] is HIV-1 Env of isolate CAAN.A2 (Acute), clade B, on pseudovirus (HIV-1).
The target of experiment [8] is HIV-1 Env of isolate LAVI_C22 (HIV-1).
Experiment [9] addresses HIV-1 Env of isolate LAVI_C3 (HIV-1).
Experiment [10] concerns the target HIV-1 Env of isolate MGRM-Chronic-B-008, clade B, on pseudovirus (HIV-1).
Experiment [11] deals with HIV-1 Env of isolate MGRM-D-003 (clade D pseudovirus) (HIV-1).
For experiment [12], the target named is HIV-1 Env of isolate MGRM-D-014 (clade D pseudovirus) (HIV-1).
Experiment [13] deals with HIV-1 Env of isolate MGRM-D-020 (clade D pseudovirus) (HIV-1).
For experiment [14], the target named is HIV-1 Env of isolate MGRM-D-026 (clade D pseudovirus) (HIV-1).
The target of experiment [15] is HIV-1 Env of isolate PVO.4 (Acute), clade B, on pseudovirus (HIV-1).
Experiment [16] concerns the target HIV-1 Env of isolate TRO.11 (Acute), clade B, on pseudovirus (HIV-1).
In experiment [17] the target is HIV-1 Env of isolate VLGCB3, clade B, on pseudovirus (HIV-1).
The target of experiment [18] is HIV-1 Env of pseudovirus MGRM-AE-001 (clade CRF01_AE) (HIV-1).
In experiment [19] the target is HIV-1 Env of pseudovirus MGRM-AG-006 (clade CRF_AG) (HIV-1).
Experiment [20] deals with HIV-1 Env of pseudovirus MGRM-Chronic-B-012 (HIV-1).
Experiment [21] addresses HIV-1 Env of pseudovirus MGRM-F1-010 (HIV-1).
The target of experiment [22] is HIV-1 Env of pseudovirus MGRM-F1-014 (HIV-1).
Experiment [23] deals with HIV-1 Env of pseudovirus MGRM-G-024 (HIV-1, clade G isolate MGRM-G-024).
Experiment [24] addresses HIV-1 IAVI-C22 envelope glycoprotein (Env) on pseudovirus (HIV-1).
In experiment [25] the target is HIV-1 92BR020 Env (pseudovirus, clade B) (HIV-1).
Experiment [26] addresses HIV-1 Env of isolate 92UG114 (HIV-1).
For experiment [27], the target named is HIV-1 Env of isolate 92WR020 (HIV-1).
For experiment [28], the target named is HIV-1 Env of isolate 94KE105 (subtype AC) (HIV-1).
For experiment [29], the target named is HIV-1 Env of isolate JR-CSF (pseudovirus) (HIV-1) (UniProt P20871).
For experiment [30], the target named is HIV-1 Env of isolate MG RM-D-020 (HIV-1).
Experiment [31] deals with HIV-1 Env of isolate MGRM-A-002 (HIV-1).
The target in experiment [32] is HIV-1 Env of isolate MGRM-A-011 (subtype A) (HIV-1).
In experiment [33] the target is HIV-1 Env of isolate MGRM-A-012 (subtype A) (HIV-1).
Experiment [34] addresses HIV-1 Env of isolate MGRM-AE-007 (subtype AE) (HIV-1).
For experiment [35], the target named is HIV-1 Env of isolate MGRM-C-005 (subtype C) (HIV-1).
In experiment [36] the target is HIV-1 Env of isolate MGRM-Chronic-B-003 (subtype B) (HIV-1).
The target of experiment [37] is HIV-1 Env of isolate MGRM-D-018 (clade D), on pseudovirus (HIV-1).
Experiment [38] addresses HIV-1 Env of isolate THR0.18 (subtype B) (HIV-1).
In experiment [39] the target is HIV-1 envelope glycoprotein (Env) of isolate MGRM-C-007 (HIV-1).
The target in experiment [40] is HIV-1 envelope glycoprotein (Env) of isolate MGRM-C-026 (HIV-1).
In experiment [41] the target is aMLV envelope, on pseudovirus (negative control virus).

1443_C16 (PG16) (TCN-116) (antibody), sequence (VH): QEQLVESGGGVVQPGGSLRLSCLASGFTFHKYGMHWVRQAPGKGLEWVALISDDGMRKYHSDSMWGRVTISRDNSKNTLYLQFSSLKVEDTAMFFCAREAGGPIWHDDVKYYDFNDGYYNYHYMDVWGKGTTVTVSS
1443_C16 (PG16) (TCN-116) (antibody), sequence (VL): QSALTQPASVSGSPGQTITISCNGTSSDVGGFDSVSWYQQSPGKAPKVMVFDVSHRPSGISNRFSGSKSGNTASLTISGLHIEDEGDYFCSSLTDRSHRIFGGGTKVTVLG
5329_C19 (PGT-136) (antibody), sequence (VH): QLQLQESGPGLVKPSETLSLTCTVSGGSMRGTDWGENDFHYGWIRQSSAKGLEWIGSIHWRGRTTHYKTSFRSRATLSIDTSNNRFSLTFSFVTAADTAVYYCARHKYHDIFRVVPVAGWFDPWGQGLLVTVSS
5329_C19 (PGT-136) (antibody), sequence (VL): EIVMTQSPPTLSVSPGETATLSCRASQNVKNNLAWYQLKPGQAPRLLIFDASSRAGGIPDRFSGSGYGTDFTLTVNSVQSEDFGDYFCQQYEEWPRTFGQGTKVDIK

Turning to 1443_C16 (PG16) (TCN-116) (antibody), the IC50, pseudovirus neutralization in experiment [1] was over 50 µg/mL; in experiment [2], 0.102 µg/mL; in experiment [3] it was over 50 µg/mL; in experiment [24], 0.0687 µg/mL. The IC50 (µg/ml), pseudovirus neutralization in [4] is 0.11 µg/mL; in [5] it was over 50 µg/mL; in experiment [6], 5.76 µg/mL; in experiment [7], 8.83 µg/mL; in experiment [10], 0.73 µg/mL; in [11], 0.01 µg/mL. Further, the IC50 (µg/ml), pseudovirus neutralization in experiment [12] is 0.003 µg/mL; in experiment [13], 16.3 µg/mL; in experiment [14], over 50 µg/mL; in [15], 5.43 µg/mL; in [16], 0.22 µg/mL; in experiment [17], 0.4 µg/mL. Further, the IC50 (µg/ml), pseudovirus neutralization in experiment [20] was 3.74 µg/mL; in [21], 0.01 µg/mL; in experiment [22] it was 0.01 µg/mL; in experiment [23] it was 0.01 µg/mL. Moreover, the IC50 in [8] was 0.02 µg/mL; in experiment [9], 9.55 µg/mL; in experiment [18], 4.33 µg/mL; in [19], over 50 µg/mL.

2G12 (antibody): the IC50, pseudovirus neutralization in [1] was 0.59 µg/mL; in experiment [2] it was over 50 µg/mL; in [3], 23.9 µg/mL; in experiment [24], over 50 µg/mL. Moreover, the IC50 (µg/ml), pseudovirus neutralization in experiment [4] was over 50 µg/mL; in [5], over 50 µg/mL; in experiment [6] it was over 50 µg/mL; in [7], over 50 µg/mL; in [10], 0.55 µg/mL; in experiment [11], over 50 µg/mL. Moreover, the IC50 (µg/ml), pseudovirus neutralization in [12] was over 50 µg/mL; in experiment [13] it was over 50 µg/mL; in [14] it was over 50 µg/mL; in experiment [15], 0.8 µg/mL; in experiment [16], 0.29 µg/mL; in experiment [17] it was 7.9 µg/mL. The IC50 (µg/ml), pseudovirus neutralization in experiment [20] is 0.22 µg/mL; in [22], over 50 µg/mL; in experiment [23], over 50 µg/mL. In addition, the IC50 was over 50 µg/mL in [8], over 50 µg/mL in experiment [9], over 50 µg/mL in experiment [18] and 3.92 µg/mL in experiment [19].

Consider 4E10 (antibody), for which the IC50, pseudovirus neutralization in experiment [1] was found to be 1.32 µg/mL; in experiment [2] it was 1.55 µg/mL; in experiment [3], 3.8 µg/mL; in experiment [24], 1.02 µg/mL. Besides, the IC50 (µg/ml), pseudovirus neutralization was 4.87 µg/mL in experiment [4]; 7.46 µg/mL in experiment [5]; 2.46 µg/mL in experiment [6]; 17.9 µg/mL in experiment [7]; 16.7 µg/mL in experiment [10]; 2.49 µg/mL in experiment [11]. Also, the IC50 (µg/ml), pseudovirus neutralization in experiment [12] was 3.24 µg/mL; in [13], over 50 µg/mL; in [14] it was 2.95 µg/mL; in experiment [15] it was 18.3 µg/mL; in experiment [16], 1.39 µg/mL; in experiment [17], 5.76 µg/mL. For the same substance, the IC50 (µg/ml), pseudovirus neutralization in experiment [20] came to 48 µg/mL; in experiment [21] it was 3.69 µg/mL; in [22], 7.36 µg/mL; in experiment [23], 1.57 µg/mL. For the same substance, the IC50 in [8] was determined as 2.02 µg/mL; in experiment [9], 2.85 µg/mL; in [18], 0.85 µg/mL; in experiment [19], 1.76 µg/mL.

On to 5343_B08 (PGT-135) (antibody), for which the IC50 neutralization was 0.104 µg/mL in experiment [25], over 50 µg/mL in [35], over 50 µg/mL in [36] and over 50 µg/mL in [38]. In addition, the IC50 (µg/mL), pseudovirus neutralization is 1.29 µg/mL in experiment [26]; 0.063 µg/mL in experiment [28]; over 50 µg/mL in [30]; over 50 µg/mL in experiment [32]; over 50 µg/mL in experiment [33]; over 50 µg/mL in experiment [34]. Besides, the figures for the IC50 (µg/mL), pseudovirus neutralization in experiment [39] and in experiment [40] were over 50 µg/mL and 0.004 µg/mL, respectively. In addition, the IC50 is 0.067 µg/mL in [27] and over 50 µg/mL in experiment [31]. In experiment [29], this substance returned a Primary Neutralization Index (B cell culture supernatant) of 1.8. In addition, the results for the IC50, pseudovirus neutralization in [37] and in [41] were 0.0433 µg/mL and over 10 µg/mL, respectively.

Consider 5147_N06 (PGT-130) (antibody), for which the IC50 neutralization in experiment [25] was 1.12 µg/mL; in experiment [35], 0.935 µg/mL; in experiment [36], over 50 µg/mL; in experiment [38] it was over 50 µg/mL. In addition, the IC50 (µg/mL), pseudovirus neutralization in experiment [26] was over 50 µg/mL; in experiment [28], 0.004 µg/mL; in [30], 24.7 µg/mL; in experiment [32], over 50 µg/mL; in experiment [33], over 50 µg/mL; in [34], 0.083 µg/mL. In addition, the IC50 (µg/mL), pseudovirus neutralization is over 50 µg/mL in experiment [39] and 0.036 µg/mL in experiment [40]. For the same substance, the IC50 in experiment [27] is 0.039 µg/mL; in [31], 0.01 µg/mL. In addition, the Polyclonal Transfectant Neutralization Index in experiment [29] was 1.24. Also, the Primary Neutralization Index (B cell culture supernatant) in experiment [29] was found to be 19.3. The IC50, pseudovirus neutralization in [37] is 0.0378 µg/mL; in [41] it was over 10 µg/mL.

On to 5329_C19 (PGT-136) (antibody), for which the IC50 neutralization in experiment [25] is over 10 µg/mL; in experiment [35], over 50 µg/mL; in experiment [36] it was over 50 µg/mL; in experiment [38] it was over 50 µg/mL. Also, the IC50 (µg/mL), pseudovirus neutralization in experiment [26], in [28], in [30], in experiment [32], in [33] and in experiment [34] was over 50 µg/mL in each case. Also, the IC50 (µg/mL), pseudovirus neutralization in experiment [39] was over 50 µg/mL; in [40], 0.006 µg/mL. The IC50 in experiment [27] is 2.33 µg/mL; in experiment [31], over 50 µg/mL. For the same substance, in experiment [29], the Primary Neutralization Index (B cell culture supernatant) was found to be 0.9. Besides, the IC50, pseudovirus neutralization in [37] and in experiment [41] was over 10 µg/mL each time.

As usually defined, the IC50 is the concentration needed to halve the response being measured. Lower therefore signals greater potency.
